The values that follow come from the nanobody polyreactivity screen of Harvey et al. (2022).

This data set is described as follows: yeast display, Sf9 membrane polyspecificity reagent, FACS + sequencing; frameworks hold sequencing errors. The essentials:
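Galactose-induced (36–48 hours) yeast carrying a synthetic nanobody display library were exposed to 10% biotinylated, detergent-solubilized Sf9 membrane reagent at 4 °C for 1 hour. FACS followed streptavidin microbead enrichment, using low and high (top ~1%) gates for expression (anti-HA) and reagent binding (streptavidin). Colony PCR, MiSeq 2 × 250 sequencing and CDR-length filtering followed. Labels for polyreactivity reflect the gate of origin.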
“QVQLVESGGGLVQAGGSLRLSCAASGINFTSYAMGWYRQAPGKERELVAAISSSGVRTYYADSVKGRFTISRDNAKNTVYLQMNSQKPEDTAVYYCATRRRVLYGYDYWGQGTQVTVSS”: the “polyreactivity (PSR sort gate)” value is listed as “high polyreactivity”.

With “QVQLVESGGGLVQAGGSLRLSCAASGINISWYAMGLYRQAPGKERELVAAISRRGGRTYYADSVKGRFTSSRDNAKNTVYLEMKSMLPEDTAVYYCAVVERQVPGPADGSVQVYYYWGQGTQVTGSS”, the “polyreactivity (PSR sort gate)” value was “high polyreactivity”.

Consider “QVQLVESGGGLVQAGGSLRLSCAASGIPFYVKDMGWYRQAPGKDWDCVAAISYRGGSTYYADSVKGRFTISRDNAKNTVYLQMNSLKPEDTAVYYCAADYNYWSPHRDDYWGQGTQVTVSS”, for which the “polyreactivity (PSR sort gate)” value is “low polyreactivity”.

For “QVQLVESGGGLVQAGGSLRLSCAASGISFERNGMGWYRQATGKERELVAAIRSGGSTYYADSVKGRFTISRDNAKNRVYVQMHSLKPEETAVYYCAAVTQGGYTDLGDYWGQGTQVTVSS”, the “polyreactivity (PSR sort gate)” value was “low polyreactivity”.

On to “QVQLVESGGGLVQAGGSLRLSCAASGISFGVYSLGWYRQAPGKERELVAAISSSGTSTYYADSVKGRFTISRDNAKNTVYLQMNSLKPEDTAVYYCAADYKRNQEVDYWGQGTQVTVSS”, for which the “polyreactivity (PSR sort gate)” value is given as “high polyreactivity”.

As for “QVQLVESGGGLVQAGGSLRLSCAASGITFAAYAMGWYRQAPGKERELVAAISTSGDSTYYADSVKGRFTISRDNAKNTVYLQMNSLKPEDTAVYYCAARAVRLSSSKVDYWGQGTQVTVSS”, the “polyreactivity (PSR sort gate)” value is recorded as “high polyreactivity”.

As to “QVQLVESGGGLVQAGGSLRLSCAASGITFAHYAMGWYRQAPGKERELVAVITSGGSTYYADSVKGRFTISRDNAKNTVYLQMNSLKPEDTAVYYCNRVPRRSIRYDYWGQGTQVTVSS”, the “polyreactivity (PSR sort gate)” value was “high polyreactivity”.

On to “QVQLVESGGGLVQAGGSLRLSCAASGITFAKYAMGWYRQAPGKESELVAAISSSGGRTYYADSVKGRFTISRDNAKNTVYLQMNSLKPEDTAVYYCAADFSGPFDYWGLGTQVTVSS”, for which the “polyreactivity (PSR sort gate)” value is reported as “high polyreactivity”.

For “QVQLVESGGGLVQAGGSLRLSCAASGITFALYAMGWYRQAPGKERELVAAISYSGGRTYYADSVKGRFTISRDNAKNTVYLQMNSLKPEDTAVYYCAAGGSGSGPYGYGYWGQGTQVTVSS”, the “polyreactivity (PSR sort gate)” value was “high polyreactivity”.

For the sequence “QVQLVESGGGLVQAGGSLRLSCAASGITFAYNAMGSYRQAPGKERELVARITSGGRTYYADSVKGRFTISRDNAKNTVYLQMNSLKPEDTAVYYCNAKEGSRYRKYDYWGQGTQVTVSS”, the “polyreactivity (PSR sort gate)” value was “low polyreactivity”.

For “QVQLVESGGGLVQAGGSLRLSCAASGITFAYYVMGWYRQAPGKERELVAAINWSGGSTYYADSVKGRFTISRDNAKNTVYLQMNSLKPEDTAVYYCAADWSTWYGEKFYWGHGTQVTVSS”, the “polyreactivity (PSR sort gate)” value is reported as “high polyreactivity”.

As to “QVQLVESGGGLVQAGGSLRLSCAASGITFDENTMGWYRQATGKERELVASISNGGNTYYADSVKGRFTISRDNAKNTVYLQMNSLKPEDSAVYYCAARYGYYYSRYDHWGQGTQVTVSS”, the “polyreactivity (PSR sort gate)” value is given as “low polyreactivity”.

As for “QVQLVESGGGLVQAGGSLRLSCAASGITFDEYAMGWYIQAPGKERELVASISAGSTYYADSVKGRFTISRDNAKNTVYLQMNSLKPEDTAVYYCAVVVDYDAYRYWGYDYWGQGTQVTVSS”, the “polyreactivity (PSR sort gate)” value is “high polyreactivity”.

Regarding “QVQLVESGGGLVQAGGSLRLSCAASGITFDHYVMGWYRQAPGKERELVAAISRRGGSTYYADSVKGRFTISRDNAKNTVYLQMNSLKPEDTAVYYCAADSSKHIGYDSWGQGTQVTVSS”, the “polyreactivity (PSR sort gate)” value was “high polyreactivity”.

“QVQLVESGGGLVQAGGSLRLSCAASGITFDNNAMGWYRQAPGKEREFVADIDGSGGSTYYADSVKGRFTISRDNAKNTVYLLMNCLKPEDTAVYYCAVVVYYYTYHYWGQGTQVTVSS”: the “polyreactivity (PSR sort gate)” value is reported as “low polyreactivity”.

As to “QVQLVESGGGLVQAGGSLRLSCAASGITFDSYAMGWYRQAPGKERELVATISRSGTTTYYADSVKGRFTISRDNAKNTGYLQMNSLKPEDTAVYYCNTLRDYWTYHFYGAVRDGYDYWGQGTQVTVSS”, the “polyreactivity (PSR sort gate)” value was “low polyreactivity”.

With “QVQLVESGGGLVQAGGSLRLSCAASGITFDYYTMGWYRQAPGKERELVAGITRGGRTYYADSVKGRFTISRDNAKNTVYLQMNSLKPEDTAVYYCNADPWWRFDYWGQGTQVTVSS”, the “polyreactivity (PSR sort gate)” value was “low polyreactivity”.

Turning to “QVQLVESGGGLVQAGGSLRLSCAASGITFEPNDMGWYRQAPGKERELVAAISWSGGDTYYADSVKGRFTISRDNAKNTVYLQMNSLKPEDTAVYYCAAESWVAYEYWGQGTQVTVSS”, the “polyreactivity (PSR sort gate)” value was “low polyreactivity”.

Turning to “QVQLVESGGGLVQAGGSLRLSCAASGITFFGYALGWYRQAPGKERELVADITTSDSTYYADSVKGRFTISRDNAKNTVYLQMNSLKPEDTAVYYCNADYYDGGYGPGVEEYDYWGQGTQVTVSS”, the “polyreactivity (PSR sort gate)” value is recorded as “low polyreactivity”.

Regarding “QVQLVESGGGLVQAGGSLRLSCAASGITFFGYAMGWYRQAPGKERELVATISRSGGSTSYADSVKGRFTISRDNAKNTVYLQMNSLKPEDTAVYYCNNRTPYLRPIMDYWGQGTQVTVSS”, the “polyreactivity (PSR sort gate)” value is recorded as “high polyreactivity”.

For the sequence “QVQLVESGGGLVQAGGSLRLSCAASGITFFLYGMGWYRQAPGKERELVAAISWSCASTYADSVKGRFTISRDNAKNTVYLQMNSLKPEDTAVYYCARDDNPIYSGVTYDYWGQGTQVTVSS”, the “polyreactivity (PSR sort gate)” value is listed as “low polyreactivity”.

“QVQLVESGGGLVQAGGSLRLSCAASGITFFLYTMGWYRQAPGKERELVAAITWRGTSTYYADSVKGRFTISRDNAKNTVYLQMNSLKPEDTGVYYCAARSRRGGYPRYYYWGQGTQVTVSS”: the “polyreactivity (PSR sort gate)” value is “high polyreactivity”.

Consider “QVQLVESGGGLVQAGGSLRLSCAASGITFFRYAMGWYRQAPGKERELVAAITTSGSSTFYADSVKGRFTISRDNAKNTVYLQMNSLTPEDTAVYYCATDYERYTWVGYLVTYYYWGQGTQVTVSS”, for which the “polyreactivity (PSR sort gate)” value is given as “high polyreactivity”.

“QVQLVESGGGLVQAGGSLRLSCAASGITFFWYDMGWYRQAPGKERELVASISSGGTTSYADSVKGRFTISRDNAKNTVYLQMNSLKPEDTAVYYCAATHWNRWHFDYWGQGTQVTVSS”: the “polyreactivity (PSR sort gate)” value is “low polyreactivity”.

Turning to “QVQLVESGGGLVQAGGSLRLSCAASGITFFYYAMGWYRQAPGKERELVAAINWSGRTYYADSVKGRFTISRDNAKNTVYLQMNSLKPEDTAVYYCAAVTYGPGVSGMDYWGQGTQVTVSS”, the “polyreactivity (PSR sort gate)” value was “low polyreactivity”.

Take “QVQLVESGGGLVQAGGSLRLSCAASGITFGANTMGWYRQAPGKERELVAAITISGGITHYADSVKGRFTISRDNAKNTVYLQMNRLKPEDTAVYYCAAGAYWRLYPYRQRNGGRMYYWGQGTQVTVSS”: the “polyreactivity (PSR sort gate)” value is recorded as “low polyreactivity”.

As for “QVQLVESGGGLVQAGGSLRLSCAASGITFGAYAMGWYRQAPGKERELVAVITRGADTYYADSVKGRFTISRDNAKNTVYLQMNSLKPEETAVYYCAAQIDLPYYYGSDDDDYWGQGTQVTVSS”, the “polyreactivity (PSR sort gate)” value is reported as “high polyreactivity”.

Turning to “QVQLVESGGGLVQAGGSLRLSCAASGITFGDNARGWYRQAPGKERELVAAISSGGSTDYADSVKGRFTISRDNAKNTVYLQMNSLKPEDTAVYYCAVDWVSVPEYDYWGQGTQVTVSS”, the “polyreactivity (PSR sort gate)” value was “low polyreactivity”.

For “QVQLVESGGGLVQAGGSLRLSCAASGITFGDNTMGWYRQAPGKERELVAAITYSSTSTYYADSVKGRFTISRDNAKNTVYLQMNSLKPEDTAVYYCAAEGPGDVVSTDYDYWGQGTQVTVSS”, the “polyreactivity (PSR sort gate)” value is on record as “low polyreactivity”.

As for “QVQLVESGGGLVQAGGSLRLSCAASGITFGGNAMGWYRQAPGKEMELVAAISWNGGRTYYADSVKGRFTISRDNAKNTVYLQMNSLKPEDTAVYYCNTPVFSKSSRKYYYWGQGTQVTVSS”, the “polyreactivity (PSR sort gate)” value is recorded as “high polyreactivity”.

Turning to “QVQLVESGGGLVQAGGSLRLSCAASGITFGGYAMGWYRKARGKERELVAAISWRGGRTYYADSVKGRFTISRDNAKNTVYIQMNSLKPDDTAVYYCAVGGTVYSTESDYWGQGTQVTVSS”, the “polyreactivity (PSR sort gate)” value is on record as “high polyreactivity”.

For “QVQLVESGGGLVQAGGSLRLSCAASGITFGPYAMGWYRQAPGKERELVAAITWGGGSTYYADSVKGRFTISRDNAKTTVYLQMNSLKPEDTAVSYCNAEGSTTSRYLPYDYWGQGTQVTVSS”, the “polyreactivity (PSR sort gate)” value is reported as “low polyreactivity”.

For “QVQLVESGGGLVQAGGSLRLSCAASGITFGPYAMGWYRQAPGKERELVATISSSGGSTYYADSVKGRFTISRDNAKNTVYLQMNSLKPEDTAVYYCAAEYYVISSPSFYEYDYWGQGTQVTVSS”, the “polyreactivity (PSR sort gate)” value is “low polyreactivity”.

Regarding “QVQLVESGGGLVQAGGSLRLSCAASGITFGPYAMGWYRQATGKERELVAAINWSGGSTYYADSVKGRFTISRDNAKTTVYLQMNSLKPEDTAVYYCAAEPYKRLYQFYFWGQGTQVTVSS”, the “polyreactivity (PSR sort gate)” value is recorded as “high polyreactivity”.

For “QVQLVESGGGLVQAGGSLRLSCAASGITFGQYAMGWYRQAPGKERELVAVITSGGDTYYADSVKGRFTISRDNAKNTVYLQINSLKPEDTAVYYCNADDDLTSIYRYDYWGQGTQVTVSS”, the “polyreactivity (PSR sort gate)” value was “low polyreactivity”.

For “QVQLVESGGGLVQAGGSLRLSCAASGITFGRNAMGWYRQAPGKERELVAAISRGGSTNYADSVKGRFTISRDNAKNTVYLQMNSLKPEDTAVYYCAAQYKYRRYPKVAFEYWGQGTQVTVSS”, the “polyreactivity (PSR sort gate)” value is “high polyreactivity”.

As for “QVQLVESGGGLVQAGGSLRLSCAASGITFGRNAMGWYRQAPGKERELVAAISRGGSTNYADSVKGRFTISRDNAKNTVYLQMNSLKPEDTAVYYGNALSWPHGSWIPIHRRYGYWGQGTQVTVSS”, the “polyreactivity (PSR sort gate)” value is listed as “high polyreactivity”.

As to “QVQLVESGGGLVQAGGSLRLSCAASGITFGRNTMGWYRQAPGKERELVAAIDSGGNTYADSVKGRFTISRDNAKNTVYLQMNSLKPEDTAVYYCAAVVYAYLYADYDYWGQGTQVTVSS”, the “polyreactivity (PSR sort gate)” value is on record as “low polyreactivity”.

Regarding “QVQLVESGGGLVQAGGSLRLSCAASGITFGRNTMGWYRQAPGKERELVAAIDSGGNTYADSVKGRFTISRDNAKNTVYLQMNSLKPEDTAVYYCAVDGGEFSSYGYWGLGTQVTVSS”, the “polyreactivity (PSR sort gate)” value is listed as “low polyreactivity”.

Take “QVQLVESGGGLVQAGGSLRLSCAASGITFGRNTMGWYRQAPGKERELVAAIDSGGNTYADSVKGRFTISRDNAKNTVYLQMNSLKPEDTAVYYCNARSYYGYGRYDYWGQGTQVTVSS”: the “polyreactivity (PSR sort gate)” value is “low polyreactivity”.

In the case of “QVQLVESGGGLVQAGGSLRLSCAASGITFGRNTMGWYRQAPGKERELVAAIDSGRNTYADSVKGRFTISRDNAKNPVYLQMNSLKPEYTAVYYCNADKSNFVRGYYWGQGTQVTVSS”, the “polyreactivity (PSR sort gate)” value is reported as “low polyreactivity”.
